We go through 3 molecules from PMC3404464 (ACS medicinal chemistry letters, 2012).

Data set [1] deals with lytic transglycosylase MltB of Escherichia coli (Escherichia coli, UniProt P41052). Kind of data set: MltB binding by intrinsic tryptophan/tyrosine fluorescence. Particulars: excitation 280 nm.
The test system of data set [2] is CO[C@@H]1O[C@H](CO)[C@@H](O[C@@H]2O[C@H](CO)[C@@H](O)[C@H](O)[C@H]2NC(C)=O)[C@H](O[C@H](C)C(=O)N[C@@H](C)C(=O)N[C@H](CCC(=O)N[C@@H](CCC[C@@H](N)C(=O)O)C(=O)N[C@H](C)C(=O)N[C@H](C)C(=O)O)C(=O)O)[C@H]1NC(C)=O. Description: Turnover of synthetic substrates by NagZ. Particulars: other: substrate hydrolysis by NagZ. The format is biochemical, Pseudomonas aeruginosa.
Data set [3] concerns CC(=O)N[C@H]1[C@H](O[C@H]2[C@H](O[C@H](C)C(=O)N[C@@H](C)C(=O)N[C@H](CCC(=O)N[C@@H](CCC[C@@H](N)C(=O)O)C(=O)N[C@H](C)C(=O)N[C@H](C)C(=O)O)C(=O)O)[C@@H](NC(C)=O)[C@@H]3OC[C@H]2O3)O[C@H](CO)[C@@H](O)[C@@H]1O. Description: Turnover of synthetic substrates by NagZ. Type of data set: biochemical, Pseudomonas aeruginosa. Particulars: other: substrate hydrolysis by NagZ.

Sequence of lytic transglycosylase MltB of Escherichia coli (P41052 19-361): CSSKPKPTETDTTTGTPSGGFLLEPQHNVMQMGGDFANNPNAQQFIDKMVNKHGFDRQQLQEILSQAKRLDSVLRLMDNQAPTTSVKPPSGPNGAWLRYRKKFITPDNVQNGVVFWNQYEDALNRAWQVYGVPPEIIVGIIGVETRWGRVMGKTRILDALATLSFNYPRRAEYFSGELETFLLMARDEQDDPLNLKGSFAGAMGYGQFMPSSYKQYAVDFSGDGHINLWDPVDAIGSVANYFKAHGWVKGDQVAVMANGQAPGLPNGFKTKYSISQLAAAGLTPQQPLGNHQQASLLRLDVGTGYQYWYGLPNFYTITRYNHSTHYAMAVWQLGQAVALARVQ

With `CC(=O)N[C@H]1CN[C@H](CO)[C@@H](O)[C@@H]1O[C@H](C)C(=O)O.Cl` [compound 4], the “kns (non-saturable, presumably non-specific binding mode)” value in data set [1] is 0.060 ± 0.006 µM⁻¹.
The Km is the substrate concentration at which the rate is half of its maximum. A word on the kcat: it is the number of substrate molecules converted per active site and unit of time at saturation. For “NagZ of P. aeruginosa (Pseudomonas aeruginosa PAO1)”, in data set [2], the Km worked out at 165 ± 36 µM, the kcat is 0.77 ± 0.04 s⁻¹ and the kcat/Km entry is on record as “(0.5 ± 0.1) × 10^4 M^−1s^−1”. Besides, in data set [3], the Km was determined as 104 ± 2 µM, the turnover number (kcat) was found to be 6.6 ± 0.2 s⁻¹ and the kcat/Km is 6.3 ± 0.2 × 10^4 M^−1s^−1.
On to `CC(=O)N[C@H]1CN[C@H](CO)[C@@H](O)[C@@H]1O.Cl` [compound 3, 2-acetamido-1,2-dideoxynojirimycin], for which, in data set [1], the “kns (non-saturable, presumably non-specific binding mode)” value was determined as 0.128 ± 0.004 µM⁻¹.
